The source of these data is US20140004107A1 (published 2014).

For test [1], the target named is T1, cynomolgus monkey ST2 (SPR analyte) (cynomolgus monkey, UniProt Q01638 19-322 (human entry)).
T1 construct: The cyno ST2 reagent injected in SPR; leader is 1-18; also called cy ST2
T1 chain: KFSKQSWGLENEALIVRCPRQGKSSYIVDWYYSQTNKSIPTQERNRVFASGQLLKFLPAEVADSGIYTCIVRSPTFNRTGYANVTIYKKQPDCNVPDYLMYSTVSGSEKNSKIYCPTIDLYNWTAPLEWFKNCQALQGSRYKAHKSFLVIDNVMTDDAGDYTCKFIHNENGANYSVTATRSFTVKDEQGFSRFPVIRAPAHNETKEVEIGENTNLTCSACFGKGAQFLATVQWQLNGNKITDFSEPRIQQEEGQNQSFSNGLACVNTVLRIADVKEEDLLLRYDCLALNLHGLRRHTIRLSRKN
In words: SPR ProteOn XPR-36, captured antibody, ST2 analyte, 25 C.

The target in test [2] is T2, human ST2 (SPR analyte) (human, UniProt Q01638 19-322).
T2 construct: The ST2 reagent injected in SPR; leader is 1-18; also called hu ST2
T2 sequence: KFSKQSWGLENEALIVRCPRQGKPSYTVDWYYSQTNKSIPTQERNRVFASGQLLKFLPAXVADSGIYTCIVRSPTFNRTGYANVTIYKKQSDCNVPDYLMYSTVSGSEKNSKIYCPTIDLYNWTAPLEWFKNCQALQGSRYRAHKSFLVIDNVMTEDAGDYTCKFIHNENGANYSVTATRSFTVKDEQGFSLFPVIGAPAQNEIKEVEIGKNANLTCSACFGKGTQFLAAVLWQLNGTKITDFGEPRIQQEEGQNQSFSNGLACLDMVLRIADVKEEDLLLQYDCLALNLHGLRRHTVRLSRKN
The description is as above.

In test [3] the target is T3, human ST2 on human primary cells (human, UniProt Q01638 19-556).
T3 sequence: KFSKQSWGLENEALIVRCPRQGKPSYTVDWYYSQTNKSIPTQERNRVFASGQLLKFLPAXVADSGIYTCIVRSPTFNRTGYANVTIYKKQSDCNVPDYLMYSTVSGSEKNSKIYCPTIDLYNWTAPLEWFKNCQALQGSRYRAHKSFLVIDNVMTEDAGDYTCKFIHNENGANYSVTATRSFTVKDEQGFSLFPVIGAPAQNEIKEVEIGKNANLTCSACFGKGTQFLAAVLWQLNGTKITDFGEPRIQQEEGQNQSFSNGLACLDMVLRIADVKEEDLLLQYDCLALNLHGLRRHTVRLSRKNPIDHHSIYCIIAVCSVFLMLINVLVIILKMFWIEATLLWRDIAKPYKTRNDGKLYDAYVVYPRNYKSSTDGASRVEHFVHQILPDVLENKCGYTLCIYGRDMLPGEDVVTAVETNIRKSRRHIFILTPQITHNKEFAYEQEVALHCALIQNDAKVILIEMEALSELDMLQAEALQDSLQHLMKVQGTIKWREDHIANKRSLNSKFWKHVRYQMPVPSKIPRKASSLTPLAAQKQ
Description: cell-based or functional assay.

Test [4] has as its target T2, human ST2 (SPR analyte). Description: SPR Biacore 4000, kd at pH 5.5 against kd at pH 7.4. As to the method:
(§1) The association (5 min) rates at pH 7.4 and dissociation (10 min) rates at pH 5.5 and 7.4 were monitored at a flow rate of 30 uL/min. The reference subtracted data was fit to a 1:1 model in Scrubber.
In general terms: In SPR one partner is held on a chip, and binding of the other changes the refractive index at the surface.

In test [5] the target is T4, biotinylated human ST2-Fc (human, UniProt Q01638 19-331, biotinylated).
T4 construct: also called ST2-Fc fusion protein; not shown: human antibody Fc domain
T4 sequence: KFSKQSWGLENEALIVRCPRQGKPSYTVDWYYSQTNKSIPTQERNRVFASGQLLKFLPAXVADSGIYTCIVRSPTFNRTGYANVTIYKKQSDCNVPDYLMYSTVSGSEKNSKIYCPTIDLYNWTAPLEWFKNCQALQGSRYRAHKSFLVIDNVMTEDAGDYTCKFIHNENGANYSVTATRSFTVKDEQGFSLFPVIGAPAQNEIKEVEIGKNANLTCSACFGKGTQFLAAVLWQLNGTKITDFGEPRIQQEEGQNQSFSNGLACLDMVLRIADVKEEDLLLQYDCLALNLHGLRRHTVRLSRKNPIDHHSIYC
In words: AlphaScreen, IL-33 mediated association of biotinylated human ST2-Fc with human AcP-FH, antibody at 12.5 ug/ml. How it is done: In the second assay, antibodies were evaluated for the ability to inhibit the IL-33 mediated association of ST2 with the co-receptor AcP. […] The ST2/AcP AlphaScreen was conducted in 8 ul reactions in a 384 well optiplate (Perkin Elmer). […] After the addition of all assay components the plates were incubated overnight in the dark at room temperature. The next day the plates were read on a 2103 Envision multilable reader (Perkin Elmer) using the same parameters as above for the first assay.
(In general: Alpha assays give light when donor and acceptor beads are brought close together.)

Test [6] has as its target T2, human ST2 (SPR analyte). In words: SPR Biacore 4000, association at pH 7.4, dissociation at pH 5.5 (estimated kd). As to the method:
as §1

The target in test [7] is T3, human ST2 on human primary cells. In words: cell-based or functional assay. The source holds these as a separate data set.
The target of test [8] is T5, soluble human ST2-FLAG His (human, UniProt Q01638 19-322, limits assumed).
T5 construct: also called human ST2-FH; 6xhistidine tagged human ST2; not shown: FLAG and 6x histidine tags
T5 sequence: T2 sequence
In words: AlphaScreen, biotinylated human IL-33 with human ST2-FH, antibody at 12.5 ug/ml.

Test [9] concerns the target T3, human ST2 on human primary cells. In words: cell-based or functional assay. This is another data set of the same source.
In test [10] the target is T2, human ST2 (SPR analyte). In words: SPR Biacore 4000, association at pH 7.4, dissociation at pH 7.4 (estimated kd). As to the method: as §1
The target of test [11] is T6, cynomolgus monkey ST2 on cynomolgus CD4+ T cells (cynomolgus monkey, UniProt Q01638 19-556 (human entry)).
T6 chain: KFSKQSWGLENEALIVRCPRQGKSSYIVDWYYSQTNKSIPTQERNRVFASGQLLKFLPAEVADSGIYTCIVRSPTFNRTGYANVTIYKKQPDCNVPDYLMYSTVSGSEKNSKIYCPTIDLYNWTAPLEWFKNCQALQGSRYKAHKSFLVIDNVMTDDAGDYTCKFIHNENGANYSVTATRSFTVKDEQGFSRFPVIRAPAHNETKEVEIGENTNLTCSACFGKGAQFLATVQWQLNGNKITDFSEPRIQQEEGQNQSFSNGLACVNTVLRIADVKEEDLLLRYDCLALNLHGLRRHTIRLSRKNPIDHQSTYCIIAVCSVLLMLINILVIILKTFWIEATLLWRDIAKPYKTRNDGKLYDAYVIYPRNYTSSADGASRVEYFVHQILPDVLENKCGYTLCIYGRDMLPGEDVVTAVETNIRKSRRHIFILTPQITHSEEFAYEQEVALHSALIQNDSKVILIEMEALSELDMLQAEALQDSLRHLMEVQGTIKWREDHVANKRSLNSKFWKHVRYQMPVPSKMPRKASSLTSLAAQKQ
In words: cell-based or functional assay.

Test [12] deals with T1, cynomolgus monkey ST2 (SPR analyte). In words: SPR Biacore 3000, captured antibody, ST2 analyte, 25 C.
For test [13], the target named is T2, human ST2 (SPR analyte). Described as above.

Residue numbers refer to the chain shown, from its start.

What is called Kd is the constant that tells how readily two partners part at equilibrium. By koff is commonly meant the rate constant with which the complex falls apart. As a reminder, the kon is the second-order rate constant of association.

B1: Ab30 (antibody, human IgG2, kappa, V domains shown)
VH: QVQLVESGGGVVQPGRSLRLSCTASGFTFSSHGMHWVRQAPGKGLEWVTIIWFDGNNKYYADSVEGRFTISRDNSKNTLFLQMNSLRAEDTAVYYCAREGAEQGFIDLWGRGTLVTVSS
VL: DIQMTQSPSSLSASVGDRVTITCQASQDISNYLNWYHQKPGKAPKLLIYDASNLETGVPSRFSGSGSGTDFTFTISGLQPEDIATYYCQQHDNLPLTFGGGTKVEIKR
notes: fully human anti-ST2 antibody
For the molecule B1, the Kd in test [1] stood at 0.0102 nM; with human ST2 (SPR analyte) [2], 0.0097 nM.

B2: Ab2 (antibody, human IgG2, kappa, V domains shown)
VH: EVQLVQSGAEVKKPGESLKISCKGSGYSFTNYWIGWVRQMPGKGLEWMGIIYPGNSDTRFSPSFQGQVTISADKSITTAYLQWSSLKASDTAMYYCARHGTSSDYYGLDVWGQGTTVTVSS
VL: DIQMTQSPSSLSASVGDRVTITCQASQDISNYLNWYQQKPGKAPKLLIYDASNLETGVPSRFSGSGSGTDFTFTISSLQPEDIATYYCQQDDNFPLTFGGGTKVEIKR
notes: fully human anti-ST2 antibody
For B2, the “IC50 of inhibition of human IL-33-induced IL-5 production from human CD4+ T cells” value in [3] was found to be 5.25 nM. For the same molecule, the “pH 5.5/pH 7.4 koff fold change” value with human ST2 (SPR analyte) [4] is 8 fold. In addition, the “% inhib ST2-AcP AS 12.5 ug/ml” value in [5] was determined as 96.4%. In addition, the koff is 0.000238 s⁻¹ with human ST2 (SPR analyte) [6], 2.98e-05 s⁻¹ in the test with human ST2 (SPR analyte) [10], 1.16e-05 s⁻¹ in test [12] and 1.13e-05 s⁻¹ with human ST2 (SPR analyte) [13]. The “IC50 of inhibition of IL-33-dependent IFN-γ response of human NK cells (IL-33 10 ng/mL plus IL-12)” value in test [7] was 0.0412 µg/mL. For the same molecule, the “% inhib ST2-IL33 AS 12.5 ug/ml” value in test [8] stood at 99.2%. In test [9], the “IC-50, human eosinophil IL-8 release assay (IL-33 and IL-3 stimulation)” value was found to be 52.8 pM. The “IC-50, cynomolgus monkey CD4+ T cell IFNγ release assay (IL-33, IL-2 and IL-12p70 stimulation)” value in [11] came out at 79.5 pM. Moreover, the Kd in test [12] was 0.0322 nM; with human ST2 (SPR analyte) [13], 0.0339 nM. In addition, the kon was found to be 360000 M⁻¹ s⁻¹ in test [12] and 333000 M⁻¹ s⁻¹ with human ST2 (SPR analyte) [13].

B3: Ab32 (antibody, human IgG2, kappa, V domains shown)
VH: EVQLVESGGGLVQPGGSLRLSCAASGFTFSTFDMHWVRQATGKGLEWVSSIDTEGDTYYSGSVKGRFTISRENARNSLYLQMNSLRAGDTAVYYCTRGEDWSDDDYYYGLDVWGQGTTVTVSS
VL: NIVMTQTPLSLSVTPGQPASISCKSSQSLLHSDGKTYLFWYLQKPGQPPQLLIYGVSNRFSGVPDRFSGSGSGTDFTLKISRVEAEDVGVYYCMQSLQLFTFGPGTKVEIKR
notes: fully human anti-ST2 antibody
Consider B3, for which the Kd in test [1] turned out to be 0.0558 nM; with human ST2 (SPR analyte) [2], 0.0602 nM.

B4: Ab33 (antibody, human IgG2, kappa, V domains shown)
VH: B3 VH with A40V, T41P, V48I, S60P
VL: B3 VL with Y92S, E109D
notes: fully human anti-ST2 antibody
As for B4, the Kd in test [1] was 0.0776 nM; in the test with human ST2 (SPR analyte) [2], 0.0844 nM.
